Test results from the RNAGym collection of RNA variant scans (doi:10.1093/nar/gkz1192).

B1: CPEB3 Ribozyme (parent)
chain: UAACAGGGGGCCACAGCAGAAGCGUUCACGUCGCAGCCCCUGUCAGAUUCUGGUGAAUCUGCGAAUUCUGCUGUAUAUCUC

Variants of: B1
Assay: self-cleavage, relative activity (ratio to wild type); higher = more cleavage; in vitro, sequencing
Method in brief: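 After error-prone PCR and barcoding, CPEB3 ribozyme mutant libraries were transcribed with T7 RNA polymerase at 37°C for 5 hours, then given 15 min with DNase I before an EDTA stop, and they cleaved during both steps. Reverse transcription with template switching preceded Illumina sequencing. Relative activity divides a variant's cleaved/total read fraction by the unmutated ribozyme's. At least 5 reads were required per variant, and three batches were averaged.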

| Variant | self-cleavage |
| --- | --- |
| A18C A45G | 0.29 |
| A18C A45U | 0.1 |
| A18C A47G | 0.26 |
| A18C A56G | 0.17 |
| A18C A56U | 0.14 |
| A18C A57G | 0.3 |
| A18C A64G | 0.38 |
| A18C A65G | 0.26 |
| A18C A65U | 0.16 |
| A18C A75G | 0.41 |
| A18C A77G | 0.26 |
| A18C C27U | 0.21 |
| A18C C29U | 0.31 |
| A18C C32U | 0.43 |
| A18C C34U | 0.22 |
| A18C C37A | 0.33 |
| A18C C38U | 0.12 |
| A18C C39A | 0.41 |
| A18C C40A | 0.34 |
| A18C C50A | 0.12 |
| A18C C50U | 0.51 |
| A18C C62U | 0.39 |
| A18C C68A | 0.18 |
| A18C C71A | 0.09 |

| Variant | self-cleavage |
| --- | --- |
| A18C C79A | 0.9 |
| A18C G30A | 0.31 |
| A18C G33A | 0.42 |
| A18C G33U | 0.13 |
| A18C G42A | 0.17 |
| A18C U25C | 0.27 |
| A18C U26C | 0.44 |
| A18C U31A | 0.19 |
| A18C U31C | 0.28 |
| A18C U41A | 0.32 |
| A18C U41C | 0.34 |
| A18C U41G | 0.53 |
| A18C U43A | 0.64 |
| A18C U43C | 0.21 |
| A18C U43G | 0.07 |
| A18C U48A | 0.2 |
| A18C U48C | 0.25 |
| A18C U49C | 0.29 |
| A18C U49G | 0.17 |
| A18C U51A | 0.42 |
| A18C U51C | 0.36 |
| A18C U54A | 0.37 |
| A18C U54C | 0.32 |
| A18C U58A | 0.21 |

| Variant | self-cleavage |
| --- | --- |
| A18C U58C | 0.3 |
| A18C U60A | 0.23 |
| A18C U60C | 0.28 |
| A18C U66C | 0.21 |
| A18C U67C | 0.18 |
| A18C U69A | 0.52 |
| A18C U69C | 0.35 |
| A18C U72A | 0.16 |
| A18C U72C | 0.46 |
| A18C U72G | 0.12 |
| A18C U74C | 0.58 |
| A18C U74G | 0.31 |
| A18C U78C | 0.4 |
| A18C U80A | 0.54 |
| A18C U80C | 0.54 |
| A18G | 0.71 |
| A18G A20G | 0.49 |
| A18G A20U | 0.27 |
| A18G A21C | 0.4 |
| A18G A21G | 0.4 |
| A18G A21U | 0.33 |
| A18G A28C | 0.38 |
| A18G A28G | 0.33 |
| A18G A28U | 0.5 |

| Variant | self-cleavage |
| --- | --- |
| A18G A35C | 0.38 |
| A18G A35G | 1.06 |
| A18G A35U | 0.27 |
| A18G A45C | 0.3 |
| A18G A45G | 0.46 |
| A18G A45U | 0.35 |
| A18G A47C | 0.12 |
| A18G A47G | 0.66 |
| A18G A47U | 0.44 |
| A18G A56C | 0.25 |
| A18G A56G | 0.55 |
| A18G A56U | 0.35 |
| A18G A57C | 0.49 |
| A18G A57G | 0.55 |
| A18G A57U | 0.36 |
| A18G A64G | 0.43 |
| A18G A64U | 0.29 |
| A18G A65G | 0.34 |
| A18G A65U | 0.38 |
| A18G A75C | 0.91 |
| A18G A75G | 0.57 |
| A18G A75U | 0.82 |
| A18G A77C | 0.39 |
| A18G A77G | 0.78 |

| Variant | self-cleavage |
| --- | --- |
| A18G A77U | 0.78 |
| A18G C23A | 0.26 |
| A18G C23G | 0.61 |
| A18G C23U | 0.12 |
| A18G C27G | 0.41 |
| A18G C27U | 0.42 |
| A18G C29A | 0.26 |
| A18G C29U | 0.42 |
| A18G C32A | 0.15 |
| A18G C32G | 0.1 |
| A18G C32U | 0.2 |
| A18G C34G | 0.08 |
| A18G C34U | 0.15 |
| A18G C37A | 0.32 |
| A18G C38U | 0.73 |
| A18G C39A | 0.47 |
| A18G C39G | 0.21 |
| A18G C39U | 0.52 |
| A18G C40A | 0.14 |
| A18G C40U | 0.44 |
| A18G C44A | 0.28 |
| A18G C44G | 0.16 |
| A18G C44U | 0.2 |
| A18G C50U | 0.63 |

| Variant | self-cleavage |
| --- | --- |
| A18G C59A | 0.23 |
| A18G C59G | 0.25 |
| A18G C59U | 0.43 |
| A18G C62A | 0.23 |
| A18G C62G | 0.13 |
| A18G C62U | 0.32 |
| A18G C68A | 0.21 |
| A18G C68U | 0.52 |
| A18G C71A | 0.29 |
| A18G C71G | 0.27 |
| A18G C71U | 0.28 |
| A18G C79G | 0.73 |
| A18G C79U | 0.9 |
| A18G C81A | 0.55 |
| A18G G19C | 0.2 |
| A18G G19U | 0.32 |
| A18G G22A | 0.24 |
| A18G G22C | 0.24 |
| A18G G22U | 0.22 |
| A18G G24A | 0.15 |
| A18G G24C | 0.28 |
| A18G G30A | 0.2 |
| A18G G33A | 0.23 |
| A18G G33U | 0.19 |

| Variant | self-cleavage |
| --- | --- |
| A18G G36A | 0.31 |
| A18G G36C | 0.13 |
| A18G G42U | 0.27 |
| A18G G46A | 0.35 |
| A18G G46U | 0.16 |
| A18G G52A | 0.82 |
| A18G G52C | 0.94 |
| A18G G52U | 0.83 |
| A18G G53A | 0.9 |
| A18G G53U | 0.56 |
| A18G G55A | 0.47 |
| A18G G55U | 0.7 |
| A18G G61A | 0.3 |
| A18G G63A | 0.51 |
| A18G G63C | 0.55 |
| A18G G63U | 1.02 |
| A18G G70A | 0.37 |
| A18G G70C | 0.13 |
| A18G G73A | 1.24 |
| A18G U25A | 0.38 |
| A18G U25C | 0.26 |
| A18G U25G | 0.17 |
| A18G U26A | 0.48 |
